{"source": "paper PMC4550541", "about": "(Protein Engineering, Design and Selection, 2015)", "binders": {"B1": {"name": "DARPin F1 (designed binder)", "chain": "DLGKKLLEAARAGEDDEVRVLMANGADVNAKDEYGLAPLYHATAHGHLEIVEVLLKNGADVNAVDAIGFTPLHLAAFIGHLEIAEVLLRHGADVNAQDKFGKTAFDISIDNVNEDLAEILQKL", "notes": "source: E. coli M15 (pQE30), purified (His trap; SEC on Superdex 75 for large scale); not shown: His6, N-terminal, kept"}}, "molecular_target": "HER2 (extracellular domain only), soluble, recombinantly expressed, biotinylated (human) (UniProt P04626)", "experiment": "BLI; Octet Red; biotinylated HER2 (10 μg/ml) loaded on streptavidin biosensors, DARPins in solution (eight concentrations, highest 50 nM); PBS pH 7.4, 0.01% BSA, 0.01% Tween 20; 1:1 Langmuir model, global kinetic fit", "data": [{"binder": "B1", "values": [{"measurement": "Kd", "result": 390, "unit": "pM"}, {"measurement": "koff", "result": 0.00037, "unit": "s⁻¹"}, {"measurement": "kon", "result": 950000, "unit": "M⁻¹ s⁻¹"}]}]}
